Assay results taken from paper PMC5703890, “Involvement of cecropin B in the formation of the Aedes aegypti mosquito cuticle”.

Experiments:
[1] = tested on: T1, Aacec B (cecropin B) peptide (Aedes aegypti); assay: pull-down
T1 sequence: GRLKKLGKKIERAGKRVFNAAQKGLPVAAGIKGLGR

[2] = target: T2, Aacec B (cecropin B) peptide (Aedes aegypti); assay: EMSA; 1 ng peptide; EMSA: 6% native polyacrylamide gel, LightShift chemiluminescent kit; buffer, salt, pH and temperature not given in the material (cited to earlier work); conditions: tags: none stated for EMSA; conjugated to beads for pull-down; label: biotin end label; blunt
T2 chain: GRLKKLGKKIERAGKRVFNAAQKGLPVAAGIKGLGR

[3] = target: T2, Aacec B (cecropin B) peptide; assay: EMSA; EMSA: 6% native polyacrylamide gel, LightShift chemiluminescent kit; buffer, salt, pH and temperature not given in the material (cited to earlier work); conditions: tags: none stated for EMSA; conjugated to beads for pull-down; label: biotin; blunt

With “TGACGTGACAACGGCAATGCGTGATCCTGTGTTCTATCGTTGGCACGGAATGATCGATGGCTTGT (double strand) [Cu B3 fragment]” the binding [1] was “binds”.

For “GCCTACATTCACGATCCTGAGTATCGGTACTTGGAAGATTTTGGAGTAATGGG (double strand) [Cu B2 fragment]”, the binding [1] was “binds”.

For “ATGGCATACTTCCGTGAGGACATCGGAGTCAACATGCACCATTGGCACTGGCATTTAGT (double strand) [Cu A1 fragment]”, the binding [1] was “binds”.

With “AACAAGCCATCGATCATTCCGTGCCAACGATAGAACACAGGATCACGCATTGCCGTTGTCACGTCACCCATTACTCCAAAATCTTCCAAGTACCGATACTCAGGATCGTGAATGTAGGCCAAAAAATCATGTCCAAAGTTATGCAAACTCCCATACAACCTCCTGTTGACGGAAAGCGTGGAAGCTTCAACCAAGTCACCTAAAAT (double strand) [Cu B fragment]” the binding [1] was “binds”.

In the case of “ATAACGAGAAATGATTTGGCTGTGCATATAGTAGAAAAGTTCACCACGGCGATCTTTCTTAGCAATTTCCGGTGGCGCCCCAGCAGGATACACTAAATGCCAGTGCCAATGGTGCATGTTGACTCCGATGTCCTCACGGAAGTATGCCAT (double strand) [Cu A fragment]”, the binding [1] is reported as “binds”.

With “CTCCGCAAAGGCAAGATCCGGGATTCCAACATTTCGAACCGGAATTTCGACCTCCGCGCCACTCGTGAACCTGCTCTGCAAATCGCCAGCTAACGGACGATAACGATCACTCAAATACTCGTCCGGAATTATGAGCGATGTTTTACCATCGTCCTTTGGCATAAACGATGGCTCCAGAGGGCGTTGCAGAAGCGCTTGGAAAGATTTACTCTCAGCCATCTTTTAACAACAAAACAATGCGTTTCCGTACGATAGCTATCGATTGGAGATTGG (double strand) [5' end-1 fragment]” the binding [1] was “binds”.

For “GTTAGCTGGCGATTTGCAGAGCAGGTTCACGAGTGGCGCGGAGGTCGAAATTCCGGTTCGAAATGTTGGAATCCCGGATCTTGCCTTTGCGGAG (double strand) [5' end-1-2 fragment]”, the binding [1] was “binds”.

B1: AaPPO 3-Cu B3 oligo (TTGGCA) (dsDNA)
DNA 1: GTTCTATCGTTGGCACGGAATGATC
DNA 2: GATCATTCCGTGCCAACGATAGAAC
B1: binds [2].

B2: nucleotide replacement 2 (GG to TA) (dsDNA)
DNA 1: TCGAAATGTTTAAATCCCGG
DNA 2: CCGGGATTTAAACATTTCGA
B2: no binding [3].

B3: AaPPO 3-Cu A1 oligo (TTGGCA) (dsDNA)
DNA 1: CATGCACCATTGGCACTGGCATTTA
DNA 2: TAAATGCCAGTGCCAATGGTGCATG
B3: binds [2].

B4: nucleotide replacement 4 ((A/C)A to CG) (dsDNA)
DNA 1: TCGAAATGTTGGCGTCCCGG
DNA 2: CCGGGACGCCAACATTTCGA
B4: no binding [3].

B5: nucleotide replacement 1 (TT to CC) (dsDNA)
DNA 1: TCGAAATGCCGGAATCCCGG
DNA 2: CCGGGATTCCGGCATTTCGA
B5: no binding [3].

B6: AaPPO 3-Cu B2 oligo (TTGGAA) (dsDNA)
DNA 1: GAGTATCGGTACTTGGAAGATTTTG
DNA 2: CAAAATCTTCCAAGTACCGATACTC
B6: binds [2].

B7: nucleotide replacement 3 ((A/C)A to TA) (dsDNA)
DNA 1: TCGAAATGTTGGTATCCCGG
DNA 2: CCGGGATACCAACATTTCGA
B7: no binding [3].

B8: AaPPO 3-5' end-1-2 oligo (TTGGAA) (dsDNA)
DNA 1: GTTCGAAATGTTGGAATCCCGGATC
DNA 2: GATCCGGGATTCCAACATTTCGAAC
B8: binds [2].
